T1: Fy-1 (Tbck) (human, UniProt Q8TEA7 1-893)
T1 sequence (looked up): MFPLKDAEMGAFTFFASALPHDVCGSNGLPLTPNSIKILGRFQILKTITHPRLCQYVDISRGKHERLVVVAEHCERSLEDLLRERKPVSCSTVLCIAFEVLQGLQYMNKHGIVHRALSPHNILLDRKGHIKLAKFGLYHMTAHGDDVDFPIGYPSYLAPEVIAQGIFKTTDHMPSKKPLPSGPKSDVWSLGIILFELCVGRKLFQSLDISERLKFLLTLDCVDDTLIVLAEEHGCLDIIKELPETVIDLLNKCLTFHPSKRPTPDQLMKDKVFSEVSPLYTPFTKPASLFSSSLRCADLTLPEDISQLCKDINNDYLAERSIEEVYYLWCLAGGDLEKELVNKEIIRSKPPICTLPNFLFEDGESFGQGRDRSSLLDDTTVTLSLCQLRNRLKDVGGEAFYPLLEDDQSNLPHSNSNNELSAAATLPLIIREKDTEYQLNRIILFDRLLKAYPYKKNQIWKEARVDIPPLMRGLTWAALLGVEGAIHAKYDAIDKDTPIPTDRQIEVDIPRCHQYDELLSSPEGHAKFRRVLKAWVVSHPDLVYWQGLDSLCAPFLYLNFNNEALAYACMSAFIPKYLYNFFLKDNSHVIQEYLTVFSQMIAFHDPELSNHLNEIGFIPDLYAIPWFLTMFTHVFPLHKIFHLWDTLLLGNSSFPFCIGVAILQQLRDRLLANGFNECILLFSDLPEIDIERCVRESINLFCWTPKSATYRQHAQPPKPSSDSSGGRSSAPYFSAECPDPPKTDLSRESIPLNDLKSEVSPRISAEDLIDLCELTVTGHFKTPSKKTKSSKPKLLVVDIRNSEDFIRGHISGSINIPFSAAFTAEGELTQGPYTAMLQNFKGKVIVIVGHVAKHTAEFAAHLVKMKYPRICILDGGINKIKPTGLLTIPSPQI

B1: Rab5 (Rab5a), GTPγS loaded (natural protein, human, UniProt P20339 1-215, looked up)
chain: MASRGATRPNGPNTGNKICQFKLVLLGESAVGKSSLVLRFVKGQFHEFQESTIGAAFLTQTVCLDDTTVKFEIWDTAGQERYHSLAPMYYRGAQAAIVVYDITNEESFARAKNWVKELQRQASPNIVIALSGNKADLANKRAVDFQEAQSYADDNSLLFMETSAKTSMNVNEIFMAIAKKLPKNEPQNPGANSARGRGVDLTEPTQPTRNQCCSN
B2: Fy-2 (Ppp1r21) (natural protein, human, UniProt Q6ZMI0 1-780, looked up)
chain: MASAELQGKYQKLAQEYSKLRAQNQVLKKGVVDEQANSAALKEQLKMKDQSLRKLQQEMDSLTFRNLQLAKRVELLQDELALSEPRGKKNKKSGESSSQLSQEQKSVFDEDLQKKIEENERLHIQFFEADEQHKHVEAELRSRLATLETEAAQHQAVVDGLTRKYMETIEKLQNDKAKLEVKSQTLEKEAKECRLRTEECQLQLKTLHEDLSGRLEESLSIINEKVPFNDTKYSQYNALNVPLHNRRHQLKMRDIAGQALAFVQDLVTALLNFHTYTEQRIQIFPVDSAIDTISPLNQKFSQYLHENASYVRPLEEGMLHLFESITEDTVTVLETTVKLKTFSEHLTSYICFLRKILPYQLKSLEEECESSLCTSALRARNLELSQDMKKMTAVFEKLQTYIALLALPSTEPDGLLRTNYSSVLTNVGAALHGFHDVMKDISKHYSQKAAIEHELPTATQKLITTNDCILSSVVALTNGAGKIASFFSNNLDYFIASLSYGPKAASGFISPLSAECMLQYKKKAAAYMKSLRKPLLESVPYEEALANRRILLSSTESREGLAQQVQQSLEKISKLEQEKEHWMLEAQLAKIKLEKENQRIADKLKNTGSAQLVGLAQENAAVSNTAGQDEATAKAVLEPIQSTSLIGTLTRTSDSEVPDVESREDLIKNHYMARIVELTSQLQLADSKSVHFYAECRALSKRLALAEKSKEALTEEMKLASQNISRLQDELTTTKRSYEDQLSMMSDHLCSMNETLSKQREEIDTLKMSSKGNSKKNKSR
B3: Fy-5 (Gatd1) (natural protein, human, UniProt Q8NB37 1-220, looked up)
chain: MASERLPNRPACLLVASGAAEGVSAQSFLHCFTMASTAFNLQVATPGGKAMEFVDVTESNARWVQDFRLKAYASPAKLESIDGARYHALLIPSCPGALTDLASSGSLARILQHFHSESKPICAVGHGVAALCCATNEDRSWVFDSYSLTGPSVCELVRAPGFARLPLVVEDFVKDSGACFSASEPDAVHVVLDRHLVTGQNASSTVPAVQNLLFLCGSRK
B4: Fy-4 (Cryzl1) (natural protein, human, UniProt O95825 1-349, looked up)
chain: MKGLYFQQSSTDEEITFVFQEKEDLPVTEDNFVKLQVKACALSQINTKLLAEMKMKKDLFPVGREIAGIVLDVGSKVSFFQPDDEVVGILPLDSEDPGLCEVVRVHEHYLVHKPEKVTWTEAAGSIRDGVRAYTALHYLSHLSPGKSVLIMDGASAFGTIAIQLAHHRGAKVISTACSLEDKQCLERFRPPIARVIDVSNGKVHVAESCLEETGGLGVDIVLDAGVRLYSKDDEPAVKLQLLPHKHDIITLLGVGGHWVTTEENLQLDPPDSHCLFLKGATLAFLNDEVWNLSNVQQGKYLCILKDVMEKLSTGVFRPQLDEPIPLYEAKVSMEAVQKNQGRKKQVVQF
B5: Fy-3 (C12orf4) (natural protein, human, UniProt Q9NQ89 1-552, looked up)
chain: MKKNRERFCNREREFVYKFKVGSQCLELRVPLKFPVQENASHLHGRLMLLHSLPCFIEKDLKEALTQFIEEESLSDYDRDAEASLAAVKSGEVDLHQLASTWAKAYAETTLEHARPEEPSWDEDFADVYHDLIHSPASETLLNLEHNYFVSISELIGERDVELKKLRERQGIEMEKVMQELGKSLTDQDVNSLAAQHFESQQDLENKWSNELKQSTAIQKQEYQEWVIKLHQDLKNPNNSSLSEEIKVQPSQFRESVEAIGRIYEEQRKLEESFTIHLGAQLKTMHNLRLLRADMLDFCKHKRNHRSGVKLHRLQTALSLYSTSLCGLVLLVDNRINSYSGIKRDFATVCQECTDFHFPRIEEQLEVVQQVVLYARTQRRSKLKESLDSGNQNGGNDDKTKNAERNYLNVLPGEFYITRHSNLSEIHVAFHLCVDDHVKSGNITARDPAIMGLRNILKVCCTHDITTISIPLLLVHDMSEEMTIPWCLRRAELVFKCVKGFMMEMASWDGGISRTVQFLVPQSISEEMFYQLSNMLPQIFRVSSTLTLTSKH

Experiments:
Fy-2 (Ppp1r21) [1] = molecular target: B2; test: HDX-MS
Fy-1 (Tbck) = molecular target: T1, Fy-1 (Tbck); test: HDX-MS
cryo-EM structure = molecular target: the molecule itself; test: cryo-EM structure
Fy-2 (Ppp1r21) [2] = molecular target: B2; test: cryo-EM structure

| binding result (Fy-2 (Ppp1r21) [1]) | binding result (Fy-1 (Tbck)) | binding result (Fy-2 (Ppp1r21) [2]) | Binder | stoichiometry N (cryo-EM structure) |
| --- | --- | --- | --- | --- |
| binds | – | – | B1 | – |
| – | binds | – | B2 | 2 |
| – | – | – | B3 | 2 |
| – | – | binds | B4 | 2 |
| binds | – | – | B5 | – |

From publication doi:10.1101/2021.06.21.449265 (bioRxiv, 2021)
